# According to patent US20130158238A1 (THERACLONE SCIENCES, published 2013):
# Where two headings read alike, the source gives them in different places.
# T1: A.X-31 Vaccine strain H3N2
# T1 M2: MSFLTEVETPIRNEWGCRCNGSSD
# T2: A.Caracas.1.71.H3N2
# T2 M2: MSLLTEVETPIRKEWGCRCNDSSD
# T3: A.Hong Kong.1.68.H3N2
# T3 M2: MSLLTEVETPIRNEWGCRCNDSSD
# T4: A.Hong Kong.1144.99.H3N2
# T4 M2: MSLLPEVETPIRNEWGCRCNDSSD
# T5: A.Hong Kong.1180.99 H3N2
# T5 M2: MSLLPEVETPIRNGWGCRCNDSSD
# Experiments:
# [1] = target: M2e peptide … (23mer synthetic peptide of M2 derived from A/Fort Worth/1/50) (Influenza A virus A/Fort Worth/1/50 (H1N1)); experiment: ELISA, peptide coated at 1 µg/ml
# [2] = target: M2e; experiment: ELISA, peptide 2 µg/mL, mAb 5 µg/mL
# [3] = target: M2e peptide … (23mer synthetic peptide of M2 derived from A/Fort Worth/1/50) (Influenza A virus A/Fort Worth/1/50 (H1N1)); experiment: ELISA, peptide 2 µg/mL, mAb 5 µg/mL
# [4] = target: M2 protein of A/Puerto Rico/8/34 (H1N1), on cells (Influenza A virus A/Puerto Rico/8/34 (H1N1)) (UniProt P06821); experiment: flow cytometry on MDCK cells infected with A/Puerto Rico/8/34
# [5] = target: T1, A.X-31 Vaccine strain H3N2; experiment: FACS, transfected HEK293, mAb 1 µg/ml [D00006 FIG. 3C-1]
# [6] = target: T2, A.Caracas.1.71.H3N2; experiment: as above
# [7] = target: T3, A.Hong Kong.1.68.H3N2; experiment: as above
# [8] = target: T4, A.Hong Kong.1144.99.H3N2; experiment: FACS, transfected HEK293 [D00006 FIG. 3C-1]
# [9] = target: T5, A.Hong Kong.1180.99 H3N2; experiment: FACS, transfected HEK293 [D00006 FIG. 3C-1]
# [10] = target: M15; experiment: ELISA, peptide 2 µg/mL, mAb 5 µg/mL
# [11] = target: M16; experiment: ELISA, peptide 2 µg/mL, mAb 5 µg/mL
# [12] = target: M2e peptide … (23mer synthetic peptide of M2 derived from A/Fort Worth/1/50) (Influenza A virus A/Fort Worth/1/50 (H1N1)); experiment: ELISA, peptide 2 µg/mL, mAb 5 µg/mL; remark: listed apart in the source
# [13] = target: NM17; experiment: ELISA, peptide 2 µg/mL, mAb 5 µg/mL
# [14] = target: NM15; experiment: ELISA, peptide 2 µg/mL, mAb 5 µg/mL
Molecule,EC50 [1] [µg/mL],binding activity (ELISA A450) [2],binding activity (ELISA A450) [3],EC50 (read off the curve) [4] [µg/mL],binding result [5],binding result [6],binding result [7],binding result [8],binding result [9],binding activity (ELISA A450) [10],binding activity (ELISA A450) [11],binding activity (ELISA A450) [12],binding activity (ELISA A450) [13],binding activity (ELISA A450) [14]
14C2 (chimeric mouse V-region/human IgG1 kappa 14C2 antibody),0.01,3.98,3.85,0.3,–,–,–,–,–,–,–,–,–,–
"8i10 (antibody, V domains shown) VH: QVQLQESGPGLVKPSETLSLTCTVSGSSISNYYWSWIRQSPGKGLEWIGFIYYGGNTKYNPSLKSRVTISQDTSKSQVSLTMSSVTAAESAVYFCARASCSGGYCILDYWGQGTLVTVS VL: DIQMTQSPSSLSASVGDRVTITCRASQNIYKYLNWYQQRPGKAPKGLISAASGLQSGVPSRFSGSGSGTDFTLTITSLQPEDFATYYCQQSYSPPLTFGGGTRVEIK",–,–,–,–,binds,binds,–,–,–,–,–,–,–,–
"23K12 (antibody, V domains shown) VH: EVQLVESGGGLVQPGGSLRISCAASGFTVSSNYMSWVRQAPGKGLEWVSVIYSGGSTYYADSVKGRFSFSRDNSKNTVFLQMNSLRAEDTAVYYCARCLSRMRGYGLDVWGQGTTVTVS VL: DIQMTQSPSSLSASVGDRVTITCRTSQSISSYLNWYQQKPGKAPKLLIYAASSLQSGVPSRFSGSGSGTDFTLTISGLQPEDFATYYCQQSYSMPAFGQGTKLEIK",–,–,–,–,binds,binds,binds,no binding (tested: 1 µg/ml),no binding (tested: 1 µg/ml),0.21,0.21,0.22,0.58,0.3
